Laboratory results taken from patent US20150344570A1 (published 2015).

T1: FcγRIIa R (human, UniProt P12318 34-217)
T1 construct: extracellular domain; also called FcgRIIa R type; 2aR
T1 sequence (looked up): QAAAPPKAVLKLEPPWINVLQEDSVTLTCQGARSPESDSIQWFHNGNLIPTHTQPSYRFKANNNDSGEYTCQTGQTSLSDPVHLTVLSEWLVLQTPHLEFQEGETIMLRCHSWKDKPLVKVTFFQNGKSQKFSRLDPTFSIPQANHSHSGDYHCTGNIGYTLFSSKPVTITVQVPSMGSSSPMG

B1: GpH7-B3 variant K334_08L/GpL16-k0 (antibody, human IgG1, kappa)
heavy: not shown
light: DIVMTQSPLSLPVTPGEPASISCQASESLVHSNRNTYLHWYLQKPGQSPQLLIYKVSNRFSGVPDRFSGSGSGTDFTLKISRVEAEDVGVYYCSQNTHVPPTFGQGTKVEIERTVAAPSVFIFPPSDEQLKSGTASVVCLLNNFYPREAKVQWKVDNALQSGNSQESVTEQDSKDSTYSLSSTLTLSKADYEKHKVYACEVTHQGLSSPVTKSFNRGEC
notes: also called Ho Ab K334_08L
B2: GpH7-B3 variant A330_19Q/GpL16-k0 (antibody, human IgG1, kappa)
heavy: not shown
light: B1 light
notes: also called Ho Ab A330_19Q
B3: GpH7-B3 variant A327_10E/GpL16-k0 (antibody, human IgG1, kappa)
heavy: not shown
light: B1 light
notes: also called Ho Ab A327_10E
B4: GpH7-B3 variant K326_15Y/GpL16-k0 (antibody, human IgG1, kappa)
heavy: not shown
light: B1 light
notes: also called Ho Ab K326_15Y
B5: GpH7-B3 variant G237_18N/GpL16-k0 (antibody, human IgG1, kappa)
heavy: not shown
light: B1 light
notes: also called Ho Ab G237_18N
B6: GpH7-B3 variant K334_04F/GpL16-k0 (antibody, human IgG1, kappa)
heavy: not shown
light: B1 light
notes: also called Ho Ab K334_04F
B7: GpH7-B3 variant E333_15Y/GpL16-k0 (antibody, human IgG1, kappa)
heavy: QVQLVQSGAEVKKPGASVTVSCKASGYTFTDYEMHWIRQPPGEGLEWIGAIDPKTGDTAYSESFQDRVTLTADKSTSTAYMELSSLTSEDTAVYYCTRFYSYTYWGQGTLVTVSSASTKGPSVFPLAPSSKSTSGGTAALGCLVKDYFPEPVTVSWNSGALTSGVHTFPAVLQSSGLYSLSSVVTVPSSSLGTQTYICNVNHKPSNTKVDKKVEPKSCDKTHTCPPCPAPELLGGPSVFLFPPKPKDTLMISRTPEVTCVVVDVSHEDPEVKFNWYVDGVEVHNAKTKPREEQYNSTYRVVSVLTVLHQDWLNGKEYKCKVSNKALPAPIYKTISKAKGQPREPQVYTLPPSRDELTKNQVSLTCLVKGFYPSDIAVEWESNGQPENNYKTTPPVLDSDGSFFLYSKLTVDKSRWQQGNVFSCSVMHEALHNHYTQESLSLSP
light: B1 light
notes: also called Ho Ab E333_15Y
B8: GpH7-B3 variant H268_11K/GpL16-k0 (antibody, human IgG1, kappa)
heavy: not shown
light: B1 light
notes: also called Ho Ab H268_11K
B9: GpH7-B3 variant K334_05P/GpL16-k0 (antibody, human IgG1, kappa)
heavy: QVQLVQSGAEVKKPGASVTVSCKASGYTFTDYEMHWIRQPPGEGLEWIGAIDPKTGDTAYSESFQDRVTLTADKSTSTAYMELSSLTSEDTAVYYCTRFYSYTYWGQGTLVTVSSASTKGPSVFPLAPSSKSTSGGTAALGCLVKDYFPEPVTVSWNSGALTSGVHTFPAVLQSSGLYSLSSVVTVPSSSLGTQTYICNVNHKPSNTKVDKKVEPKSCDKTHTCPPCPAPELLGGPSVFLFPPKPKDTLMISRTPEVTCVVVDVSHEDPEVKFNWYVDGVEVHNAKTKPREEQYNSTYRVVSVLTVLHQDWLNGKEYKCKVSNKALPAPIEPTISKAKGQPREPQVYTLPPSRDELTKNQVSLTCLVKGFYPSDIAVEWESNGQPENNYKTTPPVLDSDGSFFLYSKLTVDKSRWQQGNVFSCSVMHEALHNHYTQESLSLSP
light: B1 light
notes: also called Ho Ab K334_05P
B10: GpH7-B3 variant H268_03V/GpL16-k0 (antibody, human IgG1, kappa)
heavy: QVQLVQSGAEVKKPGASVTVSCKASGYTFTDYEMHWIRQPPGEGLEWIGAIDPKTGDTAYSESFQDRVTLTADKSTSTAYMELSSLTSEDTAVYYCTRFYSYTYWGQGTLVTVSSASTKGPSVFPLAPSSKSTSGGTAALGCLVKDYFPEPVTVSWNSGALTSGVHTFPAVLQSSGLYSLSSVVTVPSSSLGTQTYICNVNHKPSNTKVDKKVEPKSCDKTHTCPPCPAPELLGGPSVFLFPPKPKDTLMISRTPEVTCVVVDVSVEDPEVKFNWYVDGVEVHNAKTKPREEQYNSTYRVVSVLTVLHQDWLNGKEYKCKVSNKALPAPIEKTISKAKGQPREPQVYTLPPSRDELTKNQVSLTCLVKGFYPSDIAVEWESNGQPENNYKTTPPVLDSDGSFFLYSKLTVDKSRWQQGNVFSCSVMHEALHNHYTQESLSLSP
light: B1 light
notes: also called Ho Ab H268_03V
B11: GpH7-B3 variant H268_20W/GpL16-k0 (antibody, human IgG1, kappa)
heavy: not shown
light: B1 light
notes: also called Ho Ab H268_20W
B12: GpH7-B3 variant I336_06M/GpL16-k0 (antibody, human IgG1, kappa)
heavy: not shown
light: B1 light
notes: also called Ho Ab I336_06M
B13: GpH7-B3 variant A327_09D/GpL16-k0 (antibody, human IgG1, kappa)
heavy: not shown
light: B1 light
notes: also called Ho Ab A327_09D
B14: GpH7-B3 variant G237_09D/GpL16-k0 (antibody, human IgG1, kappa)
heavy: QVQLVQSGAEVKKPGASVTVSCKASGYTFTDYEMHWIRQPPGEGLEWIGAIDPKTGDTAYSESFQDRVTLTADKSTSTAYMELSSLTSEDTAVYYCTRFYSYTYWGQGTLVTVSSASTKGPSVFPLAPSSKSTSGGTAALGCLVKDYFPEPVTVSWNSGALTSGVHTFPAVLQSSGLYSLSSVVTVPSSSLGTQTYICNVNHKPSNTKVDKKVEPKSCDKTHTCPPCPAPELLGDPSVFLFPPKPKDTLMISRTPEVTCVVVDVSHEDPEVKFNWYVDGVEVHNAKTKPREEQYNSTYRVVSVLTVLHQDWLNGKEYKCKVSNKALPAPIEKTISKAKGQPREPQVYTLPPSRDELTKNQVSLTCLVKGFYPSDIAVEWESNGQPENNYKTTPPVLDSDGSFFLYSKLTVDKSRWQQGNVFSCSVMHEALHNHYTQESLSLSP
light: B1 light
notes: also called Ho Ab G237_09D
B15: GpH7-B3 variant I336_08L/GpL16-k0 (antibody, human IgG1, kappa)
heavy: not shown
light: B1 light
notes: also called Ho Ab I336_08L
B16: GpH7-B3 variant H268_01G/GpL16-k0 (antibody, human IgG1, kappa)
heavy: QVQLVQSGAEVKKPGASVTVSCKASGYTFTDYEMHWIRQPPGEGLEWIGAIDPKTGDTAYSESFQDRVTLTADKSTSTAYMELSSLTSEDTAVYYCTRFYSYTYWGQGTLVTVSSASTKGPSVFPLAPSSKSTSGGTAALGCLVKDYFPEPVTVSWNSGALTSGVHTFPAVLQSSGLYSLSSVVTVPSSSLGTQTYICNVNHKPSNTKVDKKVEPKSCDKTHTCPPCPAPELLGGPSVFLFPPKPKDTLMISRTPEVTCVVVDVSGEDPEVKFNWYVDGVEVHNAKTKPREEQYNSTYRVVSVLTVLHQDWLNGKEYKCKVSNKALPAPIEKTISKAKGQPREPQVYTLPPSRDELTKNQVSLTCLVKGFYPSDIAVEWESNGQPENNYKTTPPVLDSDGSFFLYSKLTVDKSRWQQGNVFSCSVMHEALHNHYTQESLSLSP
light: B1 light
notes: also called Ho Ab H268_01G
B17: GpH7-B3 variant A330_11K/GpL16-k0 (antibody, human IgG1, kappa)
heavy: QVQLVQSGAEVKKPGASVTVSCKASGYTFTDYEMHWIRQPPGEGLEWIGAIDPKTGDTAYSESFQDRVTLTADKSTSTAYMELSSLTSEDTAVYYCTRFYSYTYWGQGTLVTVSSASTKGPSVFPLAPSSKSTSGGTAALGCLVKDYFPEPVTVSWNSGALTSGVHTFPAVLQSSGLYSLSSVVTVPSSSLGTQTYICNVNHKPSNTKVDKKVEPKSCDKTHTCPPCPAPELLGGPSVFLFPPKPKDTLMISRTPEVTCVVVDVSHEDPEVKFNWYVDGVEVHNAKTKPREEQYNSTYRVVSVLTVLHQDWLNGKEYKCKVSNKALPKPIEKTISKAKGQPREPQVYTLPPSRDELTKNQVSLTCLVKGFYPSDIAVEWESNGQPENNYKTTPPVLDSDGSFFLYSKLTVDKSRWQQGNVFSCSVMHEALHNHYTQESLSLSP
light: B1 light
notes: also called Ho Ab A330_11K
B18: GpH7-B3 variant K326_18N/GpL16-k0 (antibody, human IgG1, kappa)
heavy: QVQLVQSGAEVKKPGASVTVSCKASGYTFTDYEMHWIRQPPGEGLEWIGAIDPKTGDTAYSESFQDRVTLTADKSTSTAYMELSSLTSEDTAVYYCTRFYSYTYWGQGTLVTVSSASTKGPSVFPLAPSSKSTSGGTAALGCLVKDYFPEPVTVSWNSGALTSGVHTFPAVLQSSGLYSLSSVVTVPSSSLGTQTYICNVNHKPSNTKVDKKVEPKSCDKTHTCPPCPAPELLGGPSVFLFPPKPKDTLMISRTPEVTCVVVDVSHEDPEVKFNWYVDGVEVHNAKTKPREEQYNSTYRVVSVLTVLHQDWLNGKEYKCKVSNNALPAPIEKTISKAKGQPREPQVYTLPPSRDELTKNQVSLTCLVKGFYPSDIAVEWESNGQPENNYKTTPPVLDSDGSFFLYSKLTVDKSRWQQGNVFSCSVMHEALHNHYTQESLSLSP
light: B1 light
notes: also called Ho Ab K326_18N
B19: GpH7-B3 variant G237_04F/GpL16-k0 (antibody, human IgG1, kappa)
heavy: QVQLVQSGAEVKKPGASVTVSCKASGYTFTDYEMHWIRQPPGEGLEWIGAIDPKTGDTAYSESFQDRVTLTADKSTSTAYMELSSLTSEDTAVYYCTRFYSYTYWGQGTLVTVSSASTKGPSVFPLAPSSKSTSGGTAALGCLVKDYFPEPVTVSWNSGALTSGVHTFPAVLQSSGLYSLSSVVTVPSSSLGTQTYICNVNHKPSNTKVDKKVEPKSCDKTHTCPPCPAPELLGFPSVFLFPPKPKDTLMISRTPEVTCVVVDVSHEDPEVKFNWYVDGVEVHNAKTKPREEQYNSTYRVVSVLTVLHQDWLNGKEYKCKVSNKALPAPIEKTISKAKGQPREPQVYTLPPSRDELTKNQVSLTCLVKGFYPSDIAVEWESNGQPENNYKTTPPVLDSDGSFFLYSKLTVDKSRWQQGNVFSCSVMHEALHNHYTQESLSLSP
light: B1 light
notes: also called Ho Ab G237_04F
B20: GpH7-B3 variant G237_13S/GpL16-k0 (antibody, human IgG1, kappa)
heavy: not shown
light: B1 light
notes: also called Ho Ab G237_13S
B21: GpH7-B3 variant K326_04F/GpL16-k0 (antibody, human IgG1, kappa)
heavy: not shown
light: B1 light
notes: also called Ho Ab K326_04F
B22: GpH7-B3 variant G237_06M/GpL16-k0 (antibody, human IgG1, kappa)
heavy: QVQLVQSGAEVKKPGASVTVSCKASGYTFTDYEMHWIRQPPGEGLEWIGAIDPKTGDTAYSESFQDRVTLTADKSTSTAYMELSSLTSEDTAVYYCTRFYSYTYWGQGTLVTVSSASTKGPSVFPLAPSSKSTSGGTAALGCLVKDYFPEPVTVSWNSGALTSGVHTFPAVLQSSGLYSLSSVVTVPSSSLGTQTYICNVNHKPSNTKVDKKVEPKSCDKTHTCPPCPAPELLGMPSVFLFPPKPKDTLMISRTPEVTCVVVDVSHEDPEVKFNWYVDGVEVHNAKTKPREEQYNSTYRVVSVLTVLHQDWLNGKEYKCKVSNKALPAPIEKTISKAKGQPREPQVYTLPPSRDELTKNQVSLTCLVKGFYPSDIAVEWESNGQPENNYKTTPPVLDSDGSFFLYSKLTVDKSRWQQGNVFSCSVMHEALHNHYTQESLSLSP
light: B1 light
notes: also called Ho Ab G237_06M
B23: GpH7-B3 variant K334_13S/GpL16-k0 (antibody, human IgG1, kappa)
heavy: not shown
light: B1 light
notes: also called Ho Ab K334_13S
B24: GpH7-B3 variant A330_12R/GpL16-k0 (antibody, human IgG1, kappa)
heavy: not shown
light: B1 light
notes: also called Ho Ab A330_12R
B25: GpH7-B3 variant K334_20W/GpL16-k0 (antibody, human IgG1, kappa)
heavy: not shown
light: B1 light
notes: also called Ho Ab K334_20W
B26: GpH7-B3 variant K326_08L/GpL16-k0 (antibody, human IgG1, kappa)
heavy: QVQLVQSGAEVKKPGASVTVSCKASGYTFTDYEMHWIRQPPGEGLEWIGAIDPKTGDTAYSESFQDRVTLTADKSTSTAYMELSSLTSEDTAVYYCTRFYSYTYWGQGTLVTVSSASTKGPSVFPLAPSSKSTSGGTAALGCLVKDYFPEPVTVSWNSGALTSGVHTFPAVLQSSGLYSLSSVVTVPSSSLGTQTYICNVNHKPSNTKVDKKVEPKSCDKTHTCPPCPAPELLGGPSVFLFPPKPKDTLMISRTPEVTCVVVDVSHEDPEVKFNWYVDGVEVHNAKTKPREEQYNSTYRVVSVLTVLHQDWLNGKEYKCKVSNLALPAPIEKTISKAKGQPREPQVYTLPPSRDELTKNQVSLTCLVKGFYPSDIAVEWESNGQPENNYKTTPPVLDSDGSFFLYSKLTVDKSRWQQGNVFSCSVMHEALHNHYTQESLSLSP
light: B1 light
notes: also called Ho Ab K326_08L
B27: GpH7-B3 variant E333_07I/GpL16-k0 (antibody, human IgG1, kappa)
heavy: not shown
light: B1 light
notes: also called Ho Ab E333_07I
B28: GpH7-B3 variant E333_05P/GpL16-k0 (antibody, human IgG1, kappa)
heavy: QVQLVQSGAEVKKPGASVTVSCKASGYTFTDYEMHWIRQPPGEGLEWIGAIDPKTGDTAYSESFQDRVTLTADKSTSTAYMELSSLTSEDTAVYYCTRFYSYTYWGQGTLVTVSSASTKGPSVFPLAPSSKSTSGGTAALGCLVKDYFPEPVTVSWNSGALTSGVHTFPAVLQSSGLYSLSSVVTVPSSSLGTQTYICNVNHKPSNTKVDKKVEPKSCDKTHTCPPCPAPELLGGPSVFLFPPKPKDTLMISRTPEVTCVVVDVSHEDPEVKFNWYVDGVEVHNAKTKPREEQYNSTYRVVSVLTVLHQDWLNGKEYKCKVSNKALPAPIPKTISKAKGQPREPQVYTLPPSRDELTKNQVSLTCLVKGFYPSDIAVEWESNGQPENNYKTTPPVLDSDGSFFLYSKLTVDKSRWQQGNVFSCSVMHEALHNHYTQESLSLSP
light: B1 light
notes: also called Ho Ab E333_05P

These binders were tested against T1, FcγRIIa R (assay: SPR (Biacore), captured antibody, FcγR as analyte; relative binding activity).
Method: Analysis of interaction between objective antibody and the FcγR was carried out using Biacore T100 (GE Healthcare). HBS-EP+ (GE Healthcare) was used as the running buffer, and the measurement temperature was set to 25° C. Chips produced by immobilizing the antigen peptide by the amine coupling method to a Series S Sencor Chip CM5 (GE Healthcare), or alternatively, chips produced by allowing preliminarily biotinylated antigen peptides to interact with and immobilize onto a Series S Sensor Chip SA (certified) (GE Healthcare) were used. Antibodies of interest were captured onto an antigen peptide-immobilized chip, and allowed to interact to each FcγR diluted with running buffer. To regenerate and repeatedly use the chip, the antibodies captured on the chip were washed off by reacting 10 mM glycine-HCl, pH 1.5.

Ho/Con_2aR | Binder
105 % (GpH7-B3/GpL16-k0 = 100) | B1
99.1 % (GpH7-B3/GpL16-k0 = 100) | B2
104 % (GpH7-B3/GpL16-k0 = 100) | B3
134 % (GpH7-B3/GpL16-k0 = 100) | B4
73.6 % (GpH7-B3/GpL16-k0 = 100) | B5
110 % (GpH7-B3/GpL16-k0 = 100) | B6
96.2 % (GpH7-B3/GpL16-k0 = 100) | B7
93.4 % (GpH7-B3/GpL16-k0 = 100) | B8
102 % (GpH7-B3/GpL16-k0 = 100) | B9
105 % (GpH7-B3/GpL16-k0 = 100) | B10
110 % (GpH7-B3/GpL16-k0 = 100) | B11
96.4 % (GpH7-B3/GpL16-k0 = 100) | B12
120 % (GpH7-B3/GpL16-k0 = 100) | B13
73.1 % (GpH7-B3/GpL16-k0 = 100) | B14
105 % (GpH7-B3/GpL16-k0 = 100) | B15
122 % (GpH7-B3/GpL16-k0 = 100) | B16
106 % (GpH7-B3/GpL16-k0 = 100) | B17
113 % (GpH7-B3/GpL16-k0 = 100) | B18
113 % (GpH7-B3/GpL16-k0 = 100) | B19
44.4 % (GpH7-B3/GpL16-k0 = 100) | B20
133 % (GpH7-B3/GpL16-k0 = 100) | B21
55.3 % (GpH7-B3/GpL16-k0 = 100) | B22
106 % (GpH7-B3/GpL16-k0 = 100) | B23
101 % (GpH7-B3/GpL16-k0 = 100) | B24
96.4 % (GpH7-B3/GpL16-k0 = 100) | B25
131 % (GpH7-B3/GpL16-k0 = 100) | B26
98.3 % (GpH7-B3/GpL16-k0 = 100) | B27
99.9 % (GpH7-B3/GpL16-k0 = 100) | B28
